Substrate: CC1=CC(=O)CC(C)(C)[C@@]1(O)/C=C/C(C)=C\C(=O)O
Assay: Activity of Arabidopsis thaliana recombinant CYP707A3

B1: Abscisic acid 8'-hydroxylase 3 (Arabidopsis thaliana) (protein)
chain: MDFSGLFLTLSAAALFLCLLRFIAGVRRSSSTKLPLPPGTMGYPYVGETFQLYSQDPNVFFAAKQRRYGSVFKTHVLGCPCVMISSPEAAKFVLVTKSHLFKPTFPASKERMLGKQAIFFHQGDYHSKLRKLVLRAFMPDAIRNMVPHIESIAQESLNSWDGTQLNTYQEMKTYTFNVALISILGKDEVYYREDLKRCYYILEKGYNSMPINLPGTLFHKAMKARKELAQILANILSKRRQNPSSHTDLLGSFMEDKAGLTDEQIADNIIGVIFAARDTTASVLTWILKYLADNPTVLEAVTEEQMAIRKDKKEGESLTWEDTKKMPLTYRVIQETLRAATILSFTFREAVEDVEYEGYLIPKGWKVLPLFRNIHHNADIFSDPGKFDPSRFEVAPKPNTFMPFGSGIHSCPGNELAKLEISVLIHHLTTKYRWSIVGPSDGIQYGPFALPQNGLPIALERKP
Km: 0.71 µM

Reference: ChEMBL document CHEMBL1140664, “Asymmetrical ligand binding by abscisic acid 8'-hydroxylase” (Bioorg Med Chem, 2007)
